The data set is described as follows: self-splicing fitness, log relative to wild type (ln ratio); higher = more splicing; Tetrahymena group I intron in knt gene, E. coli kanamycin selection, DiMSum; sequences stand for … in CUCUCU…GGAGGGAAAAGUUAUCAGGCAUGCACCUGGUAGCUAGUCUUUAAACCAAUAGAUUGCAUCGGUUUAAAAGGCAAGACCGUCAAAUUGCGGGAAAGGGGUCAACAGCCGUUCAGUACCAAGUCUCAGGGGAAACUUUGAGAUGGCCUUGCAAAGGGUAUGGUAAUAAGCUGACGGACAUGGUCCUAACCACGCAGCCAAGUCCUAAGUCAACAGAUCUUCUGUUGAUAUGGAUGCAGUUCACAGACUAAAUGUCGGUCGGGGAAGAUGUAUUCUUCUCAUAAGAUAUAGUCGGACCUCUCCUUAAUGGGAGCUAGCGGAUGAAGUGAUGCAACACUGGAGCCGCUGGGAACUAAUUUGUAUGCGAAAGUAUAUUGAUUAGUUUUGGAGUACUCGUGGUCG
Summed up:
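Library with all eight P1ex-region intron nucleotides randomised, intron inside the knt kanamycin-resistance gene on pET-22b(+), in E. coli BL21(DE3). Cells grew overnight at 37°C or 30°C on LB agar with or without 25 μg/mL kanamycin (plus 100 μg/mL carbenicillin, 50 μM IPTG, 0.2% rhamnose), in six replicate transformations. Pooled colonies were amplicon-sequenced on Illumina HiSeq 2500. DiMSum fitness is the error-weighted combination of wild-type-normalised replicate fold changes, kanamycin versus none.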

± gives the uncertainty stated by the source.

In the case of GAGAAGCAAUAUUACGCGCC, the “self-splicing fitness (ln)” value runs as follows: (30 °C) -1.88 ± 0.33; (37 °C) -0.596 ± 0.23.
The matching figures for GCUAAGCAAUAUUACGGAGA: -3.1 ± 0.21 and -2.49 ± 0.23.
Taken in the same sequence, the figures for UCGGAGCAAUAUUACGGUCG were -2.01 ± 0.15 and -0.73 ± 0.25.
Taken in the same sequence, the figures for CGUCAGCAAUAUUACGUGCU were -3.04 ± 0.26 and -2.39 ± 0.27.
As to CGAUAGCAAUAUUACGGGAA, the “self-splicing fitness (ln)” value is, setting by setting: (30 °C) -2.74 ± 0.32; (37 °C) -2.33 ± 0.25.
Taken in the same sequence, the figures for CACCAGCAAUAUUACGGUCU were -1.44 ± 0.044 and -1.04 ± 0.057.
On to AGUAAGCAAUAUUACGUACU, for which the “self-splicing fitness (ln)” value is -2.29 ± 0.12 (30 °C) and -1.76 ± 0.18 (37 °C).
UACCAGCAAUAUUACGGUCG: the “self-splicing fitness (ln)” value (30 °C) was -0.769 ± 0.064 and the “self-splicing fitness (ln)” value (37 °C) came out at 0.485 ± 0.091.
Taken in the same sequence, the figures for GCGUAGCAAUAUUACGACUC were 0.552 ± 0.19 and -0.215 ± 0.26.
ACGCAGCAAUAUUACGACUC: the “self-splicing fitness (ln)” value runs as follows: (30 °C) -0.833 ± 0.08; (37 °C) 0.365 ± 0.096.
The matching figures for AUAAAGCAAUAUUACGGAGU: -0.717 ± 0.072 and -0.598 ± 0.088.
The matching figures for GGGAAGCAAUAUUACGGUUA: -1.27 ± 0.11 and -0.726 ± 0.1.
The matching figures for AAUAAGCAAUAUUACGGCGA: -0.134 ± 0.079 and -0.274 ± 0.1.
For AGUCAGCAAUAUUACGACAG, the “self-splicing fitness (ln)” value (30 °C) was -0.781 ± 0.12 and the “self-splicing fitness (ln)” value (37 °C) was -0.399 ± 0.14.
Taken in the same sequence, the figures for ACGGAGCAAUAUUACGAGCU were -3.64 ± 0.46 and -2.24 ± 0.32.
The matching figures for GUGGAGCAAUAUUACGCGGG: -2.34 ± 0.36 and -2.06 ± 0.47.
The matching figures for GGUGAGCAAUAUUACGGAUU: -0.567 ± 0.14 and -1.26 ± 0.19.
In the case of ACAGAGCAAUAUUACGCUGC, the “self-splicing fitness (ln)” value (30 °C) was -4.55 ± 0.46.
Regarding GGGCAGCAAUAUUACGAGCU, the “self-splicing fitness (ln)” value (30 °C) was -2.69 ± 0.22 and the “self-splicing fitness (ln)” value (37 °C) was 0.481 ± 0.13.
Taken in the same sequence, the figures for UACUAGCAAUAUUACGCCUU were -1.93 ± 0.15 and -0.434 ± 0.13.
With CUGCAGCAAUAUUACGCUAG, the “self-splicing fitness (ln)” value (30 °C) was -3.01 ± 0.17 and the “self-splicing fitness (ln)” value (37 °C) was -2.02 ± 0.24.
The matching figures for GGCAAGCAAUAUUACGUGAG: -1.21 ± 0.059 and -0.0615 ± 0.08.
For the sequence UCUAAGCAAUAUUACGAAAU, the “self-splicing fitness (ln)” value (30 °C) was -3.53 ± 0.32.
On to GUUCAGCAAUAUUACGUACA, for which the “self-splicing fitness (ln)” value is -1.13 ± 0.11 (30 °C) and -0.94 ± 0.11 (37 °C).
Take AUUUAGCAAUAUUACGCGCA: the “self-splicing fitness (ln)” value reads like this: (30 °C) -0.312 ± 0.13; (37 °C) -0.00399 ± 0.16.
In the case of ACUAAGCAAUAUUACGAGGC, the “self-splicing fitness (ln)” value (30 °C) was -3.03 ± 0.23 and the “self-splicing fitness (ln)” value (37 °C) was -2.48 ± 0.25.
The matching figures for CCAGAGCAAUAUUACGGGUU: -3.1 ± 0.23 and -2.63 ± 0.26.
Taken in the same sequence, the figures for UAUAAGCAAUAUUACGAAUG were -1.24 ± 0.087 and -0.222 ± 0.11.
Taken in the same sequence, the figures for GCAAAGCAAUAUUACGGCGG were -1.18 ± 0.13 and -2.07 ± 0.2.
As to UAGCAGCAAUAUUACGAUCG, the “self-splicing fitness (ln)” value by setting is: (30 °C) -0.76 ± 0.093; (37 °C) -0.0334 ± 0.12.
The matching figures for GUCCAGCAAUAUUACGAUUG: -3.41 ± 0.17 and -3.17 ± 0.24.
Turning to AAUGAGCAAUAUUACGUUUU, the “self-splicing fitness (ln)” value reads like this: (30 °C) -3.53 ± 0.16; (37 °C) -2.15 ± 0.17.
The matching figures for UUUAAGCAAUAUUACGGGUA: -2.25 ± 0.13 and -0.422 ± 0.11.
The matching figures for CCCUAGCAAUAUUACGCUCU: -4.04 ± 0.28 and -1.45 ± 0.2.
Taken in the same sequence, the figures for GGUAAGCAAUAUUACGGGCU were -1.76 ± 0.13 and -0.874 ± 0.12.
Turning to UUUCAGCAAUAUUACGUACC, the “self-splicing fitness (ln)” value is -3.51 ± 0.25 (30 °C) and -2.14 ± 0.17 (37 °C).
The matching figures for UAUGAGCAAUAUUACGGGUA: -1.86 ± 0.14 and -2.05 ± 0.14.
The matching figures for AAGCAGCAAUAUUACGUCCG: -2.15 ± 0.12 and -1.13 ± 0.11.

For the origin of these results see the supplement of paper PMC7877785.
